The text below walks through data of patent publication US20140186363A1 (UNIVERSITY OF ZURICH, published 2014).

For experiment [1], the target named is T1, MAGEA4 (UniProt P43358 1-317, limits assumed).
T1 construct: also called recombinant MAGEA4-protein; CT1.4
T1 sequence (looked up): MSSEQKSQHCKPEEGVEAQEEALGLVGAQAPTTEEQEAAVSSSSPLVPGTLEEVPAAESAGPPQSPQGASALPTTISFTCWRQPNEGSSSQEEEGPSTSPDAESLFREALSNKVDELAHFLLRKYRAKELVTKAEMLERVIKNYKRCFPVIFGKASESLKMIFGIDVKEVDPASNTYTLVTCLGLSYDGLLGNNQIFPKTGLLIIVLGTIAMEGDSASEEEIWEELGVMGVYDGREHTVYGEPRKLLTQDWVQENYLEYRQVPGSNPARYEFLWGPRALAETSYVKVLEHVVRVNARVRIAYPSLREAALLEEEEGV
The experiment is described as follows: Western blot of recombinant protein, anti-human IgG-HRP. The procedure:
Recombinant MAGEA3- and recombinant MAGEA4-protein were separated in SDS-PAGE and blotted onto membranes. Membranes were incubated with human antibodies 122G3 or 32H2. Binding of human antibodies to proteins on the membrane was evaluated using an HRP-labeled goat anti human IgG (Jackson Immunoresearch, Milan Analytica AG, Rheinfelden, Switzerland). The results are depicted in FIG. 3.
A general note: A western blot detects proteins with antibodies after separation by electrophoresis.

Experiment [2] deals with T2, MAGEA3 peptide no 19.
T2 construct: also called MAGEA3 aa 181-200
T2 peptide: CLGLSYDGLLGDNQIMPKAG
The experiment is described as follows: peptide ELISA (coated 20mer) [Figure 1]. As for the experimental part:
(§1) 20mer peptides spanning the entire MAGEA3 protein with 10 aa overlaps shared by each adjacent peptide (Peptides&Elephants, Nuthetal, Germany) were used to coat Maxisorp ELISA plates (Nunc, Rochester, N.Y.). As control a 20mer peptide representing amino acids 40-21 from the NY-ESO-1 protein was used (rev). The numbering of amino acids of MAGEA3 is based on SEQ ID No:41.
(§2) Human recombinant antibody was used at a concentration of 1 μg/ml. Bound human antibody was detected using horseradish peroxidase-conjugated goat anti-human IgG Fc-gamma specific antibodies (Jackson ImmunoResearch, Europe Ltd., Cambridgeshire, UK).
On the technique in general: ELISA stands for enzyme-linked immunosorbent assay.

In experiment [3] the target is T3, MAGEA3 peptide no 8.
T3 construct: also called MAGEA3 aa 71-90
T3 peptide: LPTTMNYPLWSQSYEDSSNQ
Put plainly: peptide ELISA (coated 20mer) [Figure 1]. The procedure: as §1, §2

For experiment [4], the target named is T4, MAGEA3 peptide no 1.
T4 construct: also called MAGEA3 aa 1-20
T4 peptide: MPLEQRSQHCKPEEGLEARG
Put plainly: peptide ELISA (coated 20mer) [Figure 1]. As for the experimental part: as §1, §2

Experiment [5] addresses T5, MAGEA3 peptide no 26.
T5 construct: also called MAGEA3 aa 251-270
T5 peptide: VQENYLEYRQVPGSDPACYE
Put plainly: peptide ELISA (coated 20mer) [Figure 1]. The procedure:
as §1, §2

Experiment [6] has as its target T6, MAGEA3 peptide no 24.
T6 construct: also called MAGEA3 aa 231-250
T6 peptide: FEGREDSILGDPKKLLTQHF
The experiment is described as follows: peptide ELISA (coated 20mer) [Figure 1]. The procedure:
as §1, §2

The target of experiment [7] is T7, MAGEA3 peptide no 14.
T7 construct: also called MAGEA3 aa 131-150
T7 peptide: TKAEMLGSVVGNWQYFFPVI
The experiment is described as follows: peptide ELISA (coated 20mer) [Figure 1]. The procedure:
as §1, §2

Experiment [8] deals with T8, MAGEA3 peptide no 2.
T8 construct: also called MAGEA3 aa 11-30
T8 peptide: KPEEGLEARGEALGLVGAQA
The experiment is described as follows: peptide ELISA (coated 20mer) [Figure 1]. The procedure: as §1, §2

For experiment [9], the target named is T9, MAGEA3 peptide no 25.
T9 construct: also called MAGEA3 aa 241-260
T9 peptide: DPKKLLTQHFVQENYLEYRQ
Put plainly: peptide ELISA (coated 20mer) [Figure 1]. As for the experimental part:
as §1, §2

For experiment [10], the target named is T10, MAGEA3 peptide no 20.
T10 construct: also called MAGEA3 aa 191-210
T10 peptide: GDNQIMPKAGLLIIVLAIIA
The experiment is described as follows: peptide ELISA (coated 20mer) [Figure 1]. The procedure:
as §1, §2

In experiment [11] the target is T11, MAGEA3 peptide no 9.
T11 construct: also called MAGEA3 aa 81-100
T11 peptide: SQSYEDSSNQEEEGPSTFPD
The experiment is described as follows: peptide ELISA (coated 20mer) [Figure 1]. The procedure:
as §1, §2

The target of experiment [12] is T12, MAGEA3 peptide no 4.
T12 construct: also called MAGEA3 aa 31-50
T12 peptide: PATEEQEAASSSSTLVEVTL
The experiment is described as follows: peptide ELISA (coated 20mer) [Figure 1]. The procedure: as §1, §2

The target in experiment [13] is T13, MAGEA3 peptide no 15.
T13 construct: also called MAGEA3 aa 141-160
T13 peptide: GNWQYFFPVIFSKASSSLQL
The experiment is described as follows: peptide ELISA (coated 20mer) [Figure 1]. As for the experimental part:
as §1, §2

For experiment [14], the target named is T14, MAGEA3 peptide no 12.
T14 construct: also called MAGEA3 aa 111-130
T14 peptide: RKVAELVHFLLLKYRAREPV
Put plainly: peptide ELISA (coated 20mer) [Figure 1]. As for the experimental part:
as §1, §2

Experiment [15] addresses T15, MAGEA3 peptide no 23.
T15 construct: also called MAGEA3 aa 221-240
T15 peptide: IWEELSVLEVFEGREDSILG
The experiment is described as follows: peptide ELISA (coated 20mer) [Figure 1]. As for the experimental part:
as §1, §2

For experiment [16], the target named is T16, MAGEA3 peptide no 21.
T16 construct: also called MAGEA3 aa 201-220
T16 peptide: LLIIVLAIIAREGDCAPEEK
Put plainly: peptide ELISA (coated 20mer) [Figure 1]. As for the experimental part:
as §1, §2

Experiment [17] deals with T17, MAGEA3 peptide no 7.
T17 construct: also called MAGEA3 aa 61-80
T17 peptide: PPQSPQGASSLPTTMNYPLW
The experiment is described as follows: peptide ELISA (coated 20mer) [Figure 1]. As for the experimental part: as §1, §2

Experiment [18] concerns the target T18, MAGEA3 peptide no 28.
T18 construct: also called MAGEA3 aa 271-290
T18 peptide: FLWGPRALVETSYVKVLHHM
Put plainly: peptide ELISA (coated 20mer) [Figure 1]. The procedure: as §1, §2

Experiment [19] concerns the target T19, MAGEA3 peptide no 31.
T19 construct: also called MAGEA3 aa 295-314
T19 peptide: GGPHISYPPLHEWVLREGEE
Put plainly: peptide ELISA (coated 20mer) [Figure 1]. As for the experimental part: as §1, §2

Experiment [20] has as its target T20, MAGEA3 peptide no 11.
T20 construct: also called MAGEA3 aa 101-120
T20 peptide: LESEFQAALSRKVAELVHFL
The experiment is described as follows: peptide ELISA (coated 20mer) [Figure 1]. As for the experimental part:
as §1, §2

Experiment [21] addresses T21, MAGEA3 peptide no 29.
T21 construct: also called MAGEA3 aa 281-300
T21 peptide: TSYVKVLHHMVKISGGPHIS
The experiment is described as follows: peptide ELISA (coated 20mer) [Figure 1]. As for the experimental part: as §1, §2

The target of experiment [22] is T22, MAGEA3 peptide no 16.
T22 construct: also called MAGEA3 aa 151-170
T22 peptide: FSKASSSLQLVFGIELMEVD
The experiment is described as follows: peptide ELISA (coated 20mer) [Figure 1]. As for the experimental part:
as §1, §2

B1: 102G10 (antibody, V domains shown)
VH: EVQLVESGGGLVKPGGSLRLSCAASGFTFSGNSMNWVRQAPGKGLEWVSSISSSSGYIYYADSVKGRFTVSRDNAKNSLYLQMNSLRAEDTAVYYCATWPVTTARVGYWGQGTLVTVSS
VL: QSVLTQPPSASGTPGQRVTISCSGSSSNIGSNYVYWHQQLPGTAPKLLIYRHDQRPSGVPDRFSGSKSGTSASLAISGLRSEDEADYYCAAWDDSLSAWVFGGGTKLTVL
notes: Patient-derived human antibody made recombinantly; also called human monoclonal antibody 102G10
Regarding B1, the binding result in experiment [1] is “no binding”; in [2], “no binding (tested: 1 µg/ml)”; in [3] it was “no binding (tested: 1 µg/ml)”; in experiment [4] it was “no binding (tested: 1 µg/ml)”; in experiment [5] it was “no binding (tested: 1 µg/ml)”; in [6] it was “no binding (tested: 1 µg/ml)”. In addition, the binding result in experiment [7], in experiment [8], in [9], in experiment [10], in experiment [11] and in experiment [12] was “no binding (tested: 1 µg/ml)” each time. Also, the binding result in experiment [13], in experiment [14], in experiment [15], in experiment [16], in experiment [17] and in experiment [18] was “no binding (tested: 1 µg/ml)” each time. The binding result in experiment [19], in experiment [20], in [21] and in experiment [22] was “no binding (tested: 1 µg/ml)” throughout.

B2: 32H2 (antibody, V domains shown)
VH: QVQLVESGGGVVQPGRSLRLSCAASGFTFSSNAMHWVRQAPGKGLEWVAVISHDGSNKYYADSVKGRFTISRDNSKNTLYLQMNSLRAEDTAVYYCARDGSGSYFNLDYWGQGTLVTVSS
VL: QSALTQPASVSGSPGQSITISCTGTSSDVGGYNYVSWYQQHPGKAPKLMIYEVSNRPSGVSNRFSGSKSGNTASLTISGLQAEDEADYYCSSYTSSSTLVFGTGTKVTVL
notes: Patient-derived human antibody made recombinantly; also called human monoclonal antibody 32H2
As to B2, the binding result in [1] is “no binding”.

B3: 34G9 (antibody, V domains shown)
VH: EVQLEESGGDLVQPGGSLRLSCAASGFTFSHYWMHWVRQAPGKGLVWVSRINSDGSSTSYADSVKGRFTISRDNAKNTLYLQMNSLRAEDTAVYYCARIGSDGYNYDFWGQGTLVTVSS
VL: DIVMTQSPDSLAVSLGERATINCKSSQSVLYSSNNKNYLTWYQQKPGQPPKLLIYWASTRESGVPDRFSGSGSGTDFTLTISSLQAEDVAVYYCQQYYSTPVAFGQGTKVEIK
notes: Patient-derived human antibody made recombinantly; also called human monoclonal antibody 34G9
Turning to B3, the binding result in [1] was “no binding”; in experiment [2] it was “no binding (tested: 1 µg/ml)”; in experiment [3] it was “no binding (tested: 1 µg/ml)”; in experiment [4] it was “no binding (tested: 1 µg/ml)”; in experiment [5], “no binding (tested: 1 µg/ml)”; in experiment [6] it was “no binding (tested: 1 µg/ml)”. For the same molecule, the binding result in [7], in experiment [8], in experiment [9], in experiment [10], in experiment [11] and in experiment [12] was “no binding (tested: 1 µg/ml)” throughout. In addition, the binding result in experiment [13], in [14], in experiment [15], in [16], in experiment [17] and in experiment [18] was “no binding (tested: 1 µg/ml)” in each case. Besides, the binding result in [19], in [20], in [21] and in [22] was “no binding (tested: 1 µg/ml)” each time.
